Laboratory results taken from patent publication US20230365658A1.

Target: SARS-CoV-2 spike (S) glycoprotein, Omicron BA.4.6 (SARS-CoV-2), P0DTC2
Test: cell-based or functional assay

B1: mAb_v2130Vanderbilt_184_20220114_00112 (antibody, V domains shown)
VH: EVQLVESGGGLVKPGGSLRLSCAASGFTFRDVWMSWVRQAPGKGLEWVGRIKSKIDGGTTDYAAPVKGRFTISRDDSKNTLYLQMNSLKTEDTAVYYCTTAGSYYYDTVGPELPEGKFDYWGQGTLVTVSS
VL: not shown
  pseudoviral neutralization IC50: 1.26 µg/mL
